Among the data in patent publication US20170247463A1 are Kd values, retold here.

The target of one experiment is hFcγRIIa131H. In words: -.
The target of the next experiment is hFcγRIIIa158V. In words: -; range printed as 0.20~0.28.
In the next experiment the target is hFcγRI. In words: -; range printed as 0.12~0.28.

Regarding IgG 1, the Kd with hFcγRIIa131H is 0.85 µM; with hFcγRIIIa158V it was 0.2 µM; with hFcγRI it was 0.00012 µM.

As a reminder, the Kd is the free concentration of one partner at which half of the binding sites on the other are occupied at equilibrium, for simple one-to-one binding. Higher therefore signals lower affinity.
